Measurements as given in patent publication US20250320281A1.

What was measured:
Assay in all cases: cell-based or functional assay
[1] = biological target: HIV-1 Env of isolate 92TH021 (pseudovirus) (HIV-1)
[2] = biological target: HIV-1 Env of isolate JR-CSF (pseudovirus) (HIV-1) (UniProt P20871)
[3] = biological target: HIV-1 Env of isolate MGRM-C-026 (pseudovirus) (HIV-1)
[4] = biological target: HIV-1 Env of isolate MGRM-C-014 (HIV-1)
[5] = biological target: HIV-1 Env of isolate MGRM-C-015 (HIV-1)
[6] = biological target: HIV-1 Env of isolate MGRM-C-017 (HIV-1)
[7] = biological target: HIV-1 Env of isolate MGRM-C-019 (HIV-1)
[8] = biological target: HIV-1 Env of isolate MGRM-C-020 (HIV-1)
[9] = biological target: HIV-1 Env of isolate MGRM-C-022 (HIV-1)
[10] = biological target: HIV-1 Env of isolate MGRM-C-023 (HIV-1)
[11] = biological target: HIV-1 Env of isolate MGRM-C-024 (HIV-1)
[12] = biological target: HIV-1 Env of isolate MGRM-C-025 (HIV-1)
[13] = biological target: HIV-1 Env of isolate MGRM-C-026 (HIV-1)
[14] = biological target: HIV-1 Env of isolate MGRM-C-027 (HIV-1)
[15] = biological target: HIV-1 Env of isolate MGRM-C-028 (HIV-1)

Sequence of PGT-145 (antibody) (VH): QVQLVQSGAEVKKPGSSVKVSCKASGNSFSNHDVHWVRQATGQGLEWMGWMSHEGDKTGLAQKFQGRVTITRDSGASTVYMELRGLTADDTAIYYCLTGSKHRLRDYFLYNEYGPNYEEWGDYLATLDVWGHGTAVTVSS
Sequence of PGT-145 (antibody) (VL): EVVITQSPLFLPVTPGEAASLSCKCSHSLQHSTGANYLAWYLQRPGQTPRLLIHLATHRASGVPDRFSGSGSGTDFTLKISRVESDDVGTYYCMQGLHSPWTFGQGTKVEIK
Sequence of PGT-143 (antibody) (VH): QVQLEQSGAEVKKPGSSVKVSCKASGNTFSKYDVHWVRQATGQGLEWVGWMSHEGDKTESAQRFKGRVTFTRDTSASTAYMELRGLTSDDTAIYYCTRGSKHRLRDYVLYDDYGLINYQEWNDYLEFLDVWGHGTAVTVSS
Sequence of PGT-143 (antibody) (VL): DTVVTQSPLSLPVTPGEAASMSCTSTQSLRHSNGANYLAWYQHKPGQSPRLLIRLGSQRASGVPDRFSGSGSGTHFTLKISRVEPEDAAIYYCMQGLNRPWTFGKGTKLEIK
Sequence of PGT-142 (antibody) (VH): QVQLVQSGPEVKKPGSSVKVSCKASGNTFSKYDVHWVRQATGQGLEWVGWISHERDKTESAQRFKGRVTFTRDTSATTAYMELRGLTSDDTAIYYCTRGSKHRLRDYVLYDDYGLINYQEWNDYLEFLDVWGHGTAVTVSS
Sequence of PGT-142 (antibody) (VL): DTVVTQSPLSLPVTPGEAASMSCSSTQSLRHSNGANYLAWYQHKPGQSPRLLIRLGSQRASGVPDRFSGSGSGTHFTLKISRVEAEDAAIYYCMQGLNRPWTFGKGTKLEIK
Sequence of PGT-144 (antibody) (VH): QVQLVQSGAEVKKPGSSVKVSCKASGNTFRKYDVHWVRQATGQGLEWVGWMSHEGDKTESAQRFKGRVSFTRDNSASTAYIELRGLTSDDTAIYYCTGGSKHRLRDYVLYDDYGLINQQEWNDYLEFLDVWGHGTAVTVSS
Sequence of PGT-144 (antibody) (VL): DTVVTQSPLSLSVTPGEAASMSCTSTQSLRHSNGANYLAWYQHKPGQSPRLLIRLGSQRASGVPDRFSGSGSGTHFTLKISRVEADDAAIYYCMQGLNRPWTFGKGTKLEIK
Sequence of PGT-141 (antibody) (VH): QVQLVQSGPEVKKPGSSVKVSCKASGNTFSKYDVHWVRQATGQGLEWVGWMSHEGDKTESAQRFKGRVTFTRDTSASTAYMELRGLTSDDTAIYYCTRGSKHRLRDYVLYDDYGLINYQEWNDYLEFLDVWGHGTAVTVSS

| Substance | Primary Neutralization Index (B cell culture supernatant) [1] | Primary Neutralization Index (B cell culture supernatant) [2] | Primary Neutralization Index (B cell culture supernatant) [3] | IC50 (µg/mL), pseudovirus neutralization [4] [µg/mL] | IC50 (µg/mL), pseudovirus neutralization [5] [µg/mL] | IC50 (µg/mL), pseudovirus neutralization [6] [µg/mL] | IC50 (µg/mL), pseudovirus neutralization [7] [µg/mL] | IC50 (µg/mL), pseudovirus neutralization [8] [µg/mL] | IC50 (µg/mL), pseudovirus neutralization [9] [µg/mL] | IC50 (µg/mL), pseudovirus neutralization [10] [µg/mL] | IC50 (µg/mL), pseudovirus neutralization [11] [µg/mL] | IC50 (µg/mL), pseudovirus neutralization [12] [µg/mL] | IC50 (µg/mL), pseudovirus neutralization [13] [µg/mL] | IC50 (µg/mL), pseudovirus neutralization [14] [µg/mL] | IC50 (µg/mL), pseudovirus neutralization [15] [µg/mL] |
| --- | --- | --- | --- | --- | --- | --- | --- | --- | --- | --- | --- | --- | --- | --- | --- |
| 5113_D22 (labelled PGT-132 in Table 26) (antibody) | 51 | 3 | 6 |  |  |  |  |  |  |  |  |  |  |  |  |
| 5117_E22 (labelled PGT-133 in Table 26) (antibody) | 42.5 | 3.6 | 3.4 |  |  |  |  |  |  |  |  |  |  |  |  |
| PGT-141 (antibody) |  |  |  | 11.8 | 0.033 | 4.02 | 0.008 | 1.34 | 0.381 | 0.153 | 0.101 | 0.247 | > 50 | 3.27 | 13.8 |
| PGT-142 (antibody) |  |  |  | 6.02 | 0.038 | 1.11 | 0.003 | 0.446 | 0.086 | 0.087 | 0.03 | 0.183 | > 50 | 0.792 | 2.12 |
| PGT-143 (antibody) |  |  |  | 8.81 | 0.085 | 5.17 | 0.004 | 0.797 | 0.103 | 0.148 | 0.05 | 0.336 | > 50 | 0.598 | 12.4 |
| PGT-144 (antibody) |  |  |  | > 50 | 0.236 | 23 | 0.513 | 1.29 | 2.58 | 0.38 | 2.06 | 17.6 | > 50 | > 50 | > 50 |
| PGT-145 (antibody) |  |  |  | 5.82 | 0.12 | > 50 | 0.005 | 0.712 | 0.492 | 0.201 | 0.174 | 0.044 | > 50 | 0.095 | 0.099 |
